According to patent US20130184211A1 (NEW YORK UNIVERSITY, published 2013):

Columns and labels:
[1] = biological target: T1, complex of V5-tagged FGFR1c and FLAG-tagged membrane-spanning murine Klotho isolated from transfected … (murine, UniProt O35082 35-1014); experiment: co-immunoprecipitation competition; competitor FGF23^28-251
T1 construct: Isolated from cell lysate on anti-V5 agarose beads; also called FGFR1c-Klotho complex (co-immunoprecipitated); binary FGFR-Klotho complex; not shown: FGFR1c, V5-tagged, expressed from a vector in HEK293-Klotho cells
T1 sequence (O35082 35-1014, one chain of several): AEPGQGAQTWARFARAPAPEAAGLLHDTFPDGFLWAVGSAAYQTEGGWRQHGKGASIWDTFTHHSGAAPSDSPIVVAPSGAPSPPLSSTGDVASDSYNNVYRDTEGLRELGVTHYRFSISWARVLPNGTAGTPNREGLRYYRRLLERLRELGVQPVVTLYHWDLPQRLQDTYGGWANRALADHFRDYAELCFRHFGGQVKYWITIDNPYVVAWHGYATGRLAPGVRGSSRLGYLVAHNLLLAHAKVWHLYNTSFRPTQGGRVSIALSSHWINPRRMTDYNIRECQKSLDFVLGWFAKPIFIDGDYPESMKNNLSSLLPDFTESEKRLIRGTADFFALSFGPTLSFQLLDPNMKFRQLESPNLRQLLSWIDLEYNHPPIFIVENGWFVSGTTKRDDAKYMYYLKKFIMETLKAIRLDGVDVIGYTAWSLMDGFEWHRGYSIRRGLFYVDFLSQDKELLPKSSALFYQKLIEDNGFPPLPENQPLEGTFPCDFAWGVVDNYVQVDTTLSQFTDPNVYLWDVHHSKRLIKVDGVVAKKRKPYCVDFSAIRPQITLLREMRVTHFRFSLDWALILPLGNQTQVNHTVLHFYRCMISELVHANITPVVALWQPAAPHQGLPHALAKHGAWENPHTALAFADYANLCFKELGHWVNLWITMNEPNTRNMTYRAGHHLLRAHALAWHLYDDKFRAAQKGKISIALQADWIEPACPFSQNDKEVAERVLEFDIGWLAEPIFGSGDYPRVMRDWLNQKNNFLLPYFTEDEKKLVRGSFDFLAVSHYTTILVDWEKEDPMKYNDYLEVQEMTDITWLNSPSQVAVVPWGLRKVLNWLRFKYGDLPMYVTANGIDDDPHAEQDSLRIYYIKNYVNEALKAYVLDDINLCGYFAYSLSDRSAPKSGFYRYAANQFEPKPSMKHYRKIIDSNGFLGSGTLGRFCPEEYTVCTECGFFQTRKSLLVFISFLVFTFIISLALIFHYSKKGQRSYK
Excerpt: (§1) Co-immunoprecipitation may also be used to determine that an agent specifically binds the binary FGFR-Klotho complex. One aspect of the present invention utilizes co-immunoprecipitation studies. Subconfluent cultures of a HEK293 cell line ectopically expressing the FLAG-tagged membrane-spanning form of murine Klotho were transfected with expression vectors for V5-tagged FGFR1c, FGFR3c, or FGFR4. Two days later, the cells were lysed, and FGFR-Klotho complexes were isolated from cell lysate using anti-V5 agarose beads. The beads were then incubated with either FGF23¹⁸⁰⁻²⁵¹ or FGF23²⁸⁻²⁵¹ alone, or with mixtures of FGF23²⁸⁻²⁵¹ with either increasing FGF23¹⁸⁰⁻²⁵¹ or increasing FGF23¹⁸⁰⁻²⁰⁵. Bead-bound proteins were resolved on SDS-polyacrylamide gels, transferred to nitrocellulose membranes, and labeled using antibodies to Klotho, FGF23, and V5 epitope tag.

[2] = biological target: T2, complex of V5-tagged FGFR3c and FLAG-tagged membrane-spanning murine Klotho isolated from transfected … (murine, UniProt O35082 35-1014); experiment: as above
T2 construct: Isolated from cell lysate on anti-V5 agarose beads; also called FGFR3c-Klotho complex; binary FGFR-Klotho complex; not shown: FGFR3c, V5-tagged, expressed from a vector in HEK293-Klotho cells
T2 sequence (O35082 35-1014, one chain of several): as above
Excerpt: as §1

[3] = biological target: T3, complex of V5-tagged FGFR4 and FLAG-tagged membrane-spanning murine Klotho isolated from transfected … (murine, UniProt O35082 35-1014); experiment: as above
T3 construct: Isolated from cell lysate on anti-V5 agarose beads; also called FGFR4-Klotho complex; binary FGFR-Klotho complex; not shown: FGFR4, V5-tagged, expressed from a vector in HEK293-Klotho cells
T3 sequence (O35082 35-1014, one chain of several): as above
Excerpt: as §1

[4] = biological target: T4, 1:1 binary complex of the ectodomains of FGFR1c and Klotho (human; murine, UniProt O35082 35-982); experiment: SPR competition; competitor FGF23^28-251 immobilized, fixed FGFR1c-Klotho complex
T4 construct: range 35-982; also called FGFR1c-Klotho complex; binary FGFR1c-Klotho complex; not shown: C-terminal FLAG tag
T4 sequence 1: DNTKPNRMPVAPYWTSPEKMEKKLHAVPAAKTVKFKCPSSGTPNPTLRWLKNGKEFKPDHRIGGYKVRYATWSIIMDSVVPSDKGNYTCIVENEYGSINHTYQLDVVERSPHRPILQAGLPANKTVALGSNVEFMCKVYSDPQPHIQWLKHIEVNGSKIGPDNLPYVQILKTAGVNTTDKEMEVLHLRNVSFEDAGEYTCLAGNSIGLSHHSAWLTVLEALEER
T4 sequence 2: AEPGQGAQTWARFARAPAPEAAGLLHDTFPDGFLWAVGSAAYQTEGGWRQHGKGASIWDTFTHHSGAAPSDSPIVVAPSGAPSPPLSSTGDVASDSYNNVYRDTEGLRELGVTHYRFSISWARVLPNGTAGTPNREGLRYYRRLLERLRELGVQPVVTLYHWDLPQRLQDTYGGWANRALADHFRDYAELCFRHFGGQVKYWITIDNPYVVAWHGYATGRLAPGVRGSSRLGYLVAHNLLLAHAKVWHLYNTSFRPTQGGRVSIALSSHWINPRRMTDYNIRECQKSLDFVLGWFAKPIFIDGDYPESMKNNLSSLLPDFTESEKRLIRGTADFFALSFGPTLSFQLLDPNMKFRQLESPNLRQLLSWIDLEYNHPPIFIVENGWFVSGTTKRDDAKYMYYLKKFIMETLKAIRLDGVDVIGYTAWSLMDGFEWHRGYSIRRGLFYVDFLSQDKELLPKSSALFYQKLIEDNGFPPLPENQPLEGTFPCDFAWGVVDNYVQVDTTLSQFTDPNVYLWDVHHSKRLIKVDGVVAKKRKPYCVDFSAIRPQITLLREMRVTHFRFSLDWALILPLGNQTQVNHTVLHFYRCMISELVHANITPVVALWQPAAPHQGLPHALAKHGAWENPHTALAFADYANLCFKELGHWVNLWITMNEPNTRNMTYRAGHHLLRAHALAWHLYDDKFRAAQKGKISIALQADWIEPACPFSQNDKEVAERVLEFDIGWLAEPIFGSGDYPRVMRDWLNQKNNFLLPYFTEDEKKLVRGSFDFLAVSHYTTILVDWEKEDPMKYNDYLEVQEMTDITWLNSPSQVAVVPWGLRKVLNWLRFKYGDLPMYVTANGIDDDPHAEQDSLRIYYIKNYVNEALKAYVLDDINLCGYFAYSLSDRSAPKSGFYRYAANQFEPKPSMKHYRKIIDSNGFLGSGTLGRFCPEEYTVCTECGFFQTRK
Protocol: Increasing concentrations of FGF23²⁸⁻²⁵¹ (0-50 nM) were mixed with a fixed concentration of 1:1 complex of the ectodomains of FGFR1c and Klotho (15 nM and 20 nM, respectively) in HBS-EP buffer, and the mixtures were passed over the FGF23 chip. In the other—reverse—assay, FGF23¹⁸⁰⁻²⁵¹ was immobilized on a chip (˜48.4 fmole/mm² of flow channel). Increasing concentrations of FGF23²⁸⁻²⁵¹ (0-50 nM) were mixed with a fixed concentration of 1:1 complex of the ectodomains of FGFR1c and Klotho (20 nM) in HBS-EP buffer, and the mixtures were passed over the chip. As a control, competition of FGF23 C-terminal tail peptide in solution with immobilized FGF23 C-terminal tail peptide for binding to the binary FGFR1c-Klotho complex was studied. Increasing concentrations of FGF23¹⁸⁰⁻²⁵¹ (0-400 nM) were mixed with a fixed concentration of 1:1 complex of the ectodomains of FGFR1c and Klotho (20 nM) in HBS-EP buffer, and the mixtures were passed over the FGF23¹⁸⁰⁻²⁵¹ chip.
To fully nail down that the C-terminal tail of FGF23 mediates FGF23 binding to the binary FGFR1c-Klotho complex, a fixed concentration of FGFR1c-Klotho was mixed with increasing concentrations of FGF23¹⁸⁰⁻²⁵¹, and the mixtures were passed over the FGF23 chip. Mixtures of FGF23²⁸⁻²⁵¹ with FGFR1c-Klotho were used as a control. […] Similar results were obtained using the “reverse” SPR assay format, where FGF23¹⁸⁰⁻²⁵¹ was immobilized on a chip and mixtures of a fixed concentration of FGFR1c-Klotho complex with increasing concentrations of FGF23²⁸⁻²⁵¹ were passed over the chip (FIG. 3E). Mixtures of FGF23¹⁸⁰⁻²⁵¹ with FGFR1c-Klotho were used as a control (FIG. 3F). To verify the specificity of the interaction between the FGF23 C-terminal tail and the FGFR1c-Klotho complex, the C-terminal tail peptide of FGF21 and FGFR1c-Klotho were mixed at molar ratios of 6:1 and 10:1, and the mixtures were injected over a FGF23 chip.

Binder	fold reduced potency compared to the FGF23^180-251 peptide [1] [fold]	fold reduced potency compared to the FGF23^180-251 peptide [2] [fold]	fold reduced potency compared to the FGF23^180-251 peptide [3] [fold]	molar excess over FGFR1c-Klotho complex at half-maximum inhibition [4] [fold molar excess]
SAEDDSERDPLNVLKPRARMTPAPAS (Made by solid phase synthesis (GenScript)) [FGF23 C-terminal region peptide (S180 to S205), FGF23^180-205]	100	> 100	> 100	5.7
N-terminally hexahistidine-tagged 72-amino acid C-terminal tail of human FGF23 (S180 to I251), FGF23^180-251 (Expressed in E. coli; also called FGF23 C-terminal tail peptide; C-terminal tail of FGF23; not shown: N-terminal hexahistidine tag (six His)) peptide: SAEDDSERDPLNVLKPRARMTPAPASCSQELPSAEDNSPMASDPLGVVRGGRVNTHAGGTGPEGCRPFAKFI				3.3
